Experimental data as given in patent US8211422.

Target: GA733 antigen (37 kD protein expressed on colorectal carcinoma cells) (UniProt P16422)
Assay: cell-based or functional assay

Sequence of UniProt P16422 (P16422 24-314): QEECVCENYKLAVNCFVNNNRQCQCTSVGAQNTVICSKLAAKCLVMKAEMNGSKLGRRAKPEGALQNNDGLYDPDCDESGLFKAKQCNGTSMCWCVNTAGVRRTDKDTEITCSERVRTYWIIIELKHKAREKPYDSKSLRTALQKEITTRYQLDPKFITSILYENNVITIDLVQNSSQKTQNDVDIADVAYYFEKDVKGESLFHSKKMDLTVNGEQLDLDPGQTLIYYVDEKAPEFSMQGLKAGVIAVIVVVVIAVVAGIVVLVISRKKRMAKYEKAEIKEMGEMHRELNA

chimeric receptor GA733-γ (scFv of MAb GA733 joined to the γ chain of the Fc receptor)
% Specific Lysis of CY13, effector:target 3.3:1: 10.3% | % Specific Lysis of CY13, effector:target 10:1: 22.2% | % Specific Lysis of CY13, effector:target 30:1: 38.7% | % Specific Lysis of CY13, effector:target 90:1: 52.2% | GM-CSF production by PBL (stimulator CY13) (pg/ml/5 × 10^5 PBL/24 hours): 1280 | GM-CSF production by PBL (stimulator GREM) (pg/ml/5 × 10^5 PBL/24 hours): 2980
